{"source": "patent US20070248613A1", "key": {"[1]": {"molecular_target": "gp120 of the HIV-1 HXB2 envelope (HIV-1 strain HXB2) (UniProt P04578)", "test": "cell-based or functional assay"}, "D5 IgG [2]": {"molecular_target": "D5 IgG", "sequence (VH, as listed by the source, chain 1 of 2)": "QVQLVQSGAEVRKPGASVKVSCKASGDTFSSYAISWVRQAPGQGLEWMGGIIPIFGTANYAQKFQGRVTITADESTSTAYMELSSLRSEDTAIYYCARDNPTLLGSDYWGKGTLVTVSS", "sequence (VL, as listed by the source, chain 2 of 2)": "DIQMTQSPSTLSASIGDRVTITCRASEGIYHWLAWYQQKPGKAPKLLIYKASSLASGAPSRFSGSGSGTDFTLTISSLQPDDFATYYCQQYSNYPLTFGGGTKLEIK"}, "D5 IgG [3]": {"molecular_target": "D5 IgG", "remark": "listed apart in the source"}, "IQN17-2Pro": {"molecular_target": "IQN17-2Pro", "test": "SPR (Biacore)"}, "IZN17 (HIV)": {"molecular_target": "IZN17 (HIV) (UniProt P04578)", "test": "SPR (Biacore)"}, "IZN17-G572D (HIV)": {"molecular_target": "IZN17-G572D (HIV) (UniProt P04578)", "test": "SPR (Biacore)"}, "IZN17-L565M (HIV)": {"molecular_target": "IZN17-L565M (HIV) (UniProt P04578)", "test": "SPR (Biacore)"}, "IZN17-Q567R (HIV)": {"molecular_target": "IZN17-Q567R (HIV) (UniProt P04578)", "test": "SPR (Biacore)"}}, "note": "Like-named read-outs stand apart in the source and are kept apart here.", "data": [{"substance": "X5 scFv", "values": [{"measurement": "IC50, single cycle infectivity assay against HIV-HXB2", "setting": "[1]", "value": 30, "unit": "nM"}]}, {"substance": "IZN17 (from UniProt P04578 565-581) (peptide)", "values": [{"measurement": "IC50 (read off the curve)", "setting": "D5 IgG [2]", "value": 7, "unit": "nM"}, {"measurement": "IC50 (read off the curve)", "setting": "D5 IgG [3]", "value": 2, "unit": "nM"}]}, {"substance": "IZN17-L565M (from UniProt P04578 565-581) (peptide)", "values": [{"measurement": "IC50 (read off the curve)", "setting": "D5 IgG [2]", "value": 10, "unit": "nM"}]}, {"substance": "IZN17-Q567R (from UniProt P04578 565-581) (peptide)", "values": [{"measurement": "IC50 (read off the curve)", "setting": "D5 IgG [2]", "value": 10, "unit": "nM"}]}, {"substance": "D5 IgG (antibody)", "values": [{"measurement": "Kd", "setting": "IQN17-2Pro", "value": 240, "unit": "nM"}, {"measurement": "koff", "setting": "IQN17-2Pro", "value": 0.0022, "unit": "s⁻¹"}, {"measurement": "kon", "setting": "IQN17-2Pro", "value": 9000, "unit": "M⁻¹ s⁻¹"}, {"measurement": "Kd", "setting": "IZN17 (HIV)", "value": 0.1, "unit": "nM"}, {"measurement": "koff", "setting": "IZN17 (HIV)", "value": 0.00059, "unit": "s⁻¹"}, {"measurement": "kon", "setting": "IZN17 (HIV)", "value": "6.1e+06", "unit": "M⁻¹ s⁻¹"}, {"measurement": "Kd", "setting": "IZN17-G572D (HIV)", "value": 550, "unit": "nM"}, {"measurement": "koff", "setting": "IZN17-G572D (HIV)", "value": 0.003, "unit": "s⁻¹"}, {"measurement": "kon", "setting": "IZN17-G572D (HIV)", "value": 5500, "unit": "M⁻¹ s⁻¹"}, {"measurement": "Kd", "setting": "IZN17-L565M (HIV)", "value": 0.3, "unit": "nM"}, {"measurement": "koff", "setting": "IZN17-L565M (HIV)", "value": 0.00089, "unit": "s⁻¹"}, {"measurement": "kon", "setting": "IZN17-L565M (HIV)", "value": "3e+06", "unit": "M⁻¹ s⁻¹"}, {"measurement": "Kd", "setting": "IZN17-Q567R (HIV)", "value": 1.5, "unit": "nM"}, {"measurement": "koff", "setting": "IZN17-Q567R (HIV)", "value": 0.0012, "unit": "s⁻¹"}, {"measurement": "kon", "setting": "IZN17-Q567R (HIV)", "value": 800000, "unit": "M⁻¹ s⁻¹"}]}, {"substance": "IZN17 V570A (from UniProt P04578 565-581) (peptide)", "values": [{"measurement": "IC50 (read off the curve)", "setting": "D5 IgG [3]", "value": 7, "unit": "nM"}]}]}
